Measurements reported in publication PMC2894786, “Fibronectin-binding protein B variation in Staphylococcus aureus” (BMC Microbiology, 2010).

T1: human fibrinogen (human, UniProt P02671-2 20-644; P02675 31-491; P02679-2 27-437)
T1 construct: fibrinogen alpha chain, human; fibrinogen beta chain, human; fibrinogen gamma chain, human; source: bought: Calbiochem; copies: + +
T1 sequence 1: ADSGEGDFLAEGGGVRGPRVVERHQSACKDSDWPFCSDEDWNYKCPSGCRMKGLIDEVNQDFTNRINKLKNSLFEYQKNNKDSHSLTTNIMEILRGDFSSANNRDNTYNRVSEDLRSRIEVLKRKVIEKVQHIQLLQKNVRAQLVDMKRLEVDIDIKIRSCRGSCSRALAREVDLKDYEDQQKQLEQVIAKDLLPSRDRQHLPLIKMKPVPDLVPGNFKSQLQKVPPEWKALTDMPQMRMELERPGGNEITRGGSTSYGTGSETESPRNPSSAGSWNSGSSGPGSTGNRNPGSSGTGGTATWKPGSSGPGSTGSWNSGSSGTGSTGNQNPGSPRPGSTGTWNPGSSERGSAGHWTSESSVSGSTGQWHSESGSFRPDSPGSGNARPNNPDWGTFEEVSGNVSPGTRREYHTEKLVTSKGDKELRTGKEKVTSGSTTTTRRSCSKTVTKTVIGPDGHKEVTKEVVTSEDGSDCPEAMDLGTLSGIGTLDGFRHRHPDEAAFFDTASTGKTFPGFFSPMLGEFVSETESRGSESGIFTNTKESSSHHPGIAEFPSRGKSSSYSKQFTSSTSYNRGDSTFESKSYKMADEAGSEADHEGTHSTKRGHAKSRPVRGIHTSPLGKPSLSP
T1 sequence 2: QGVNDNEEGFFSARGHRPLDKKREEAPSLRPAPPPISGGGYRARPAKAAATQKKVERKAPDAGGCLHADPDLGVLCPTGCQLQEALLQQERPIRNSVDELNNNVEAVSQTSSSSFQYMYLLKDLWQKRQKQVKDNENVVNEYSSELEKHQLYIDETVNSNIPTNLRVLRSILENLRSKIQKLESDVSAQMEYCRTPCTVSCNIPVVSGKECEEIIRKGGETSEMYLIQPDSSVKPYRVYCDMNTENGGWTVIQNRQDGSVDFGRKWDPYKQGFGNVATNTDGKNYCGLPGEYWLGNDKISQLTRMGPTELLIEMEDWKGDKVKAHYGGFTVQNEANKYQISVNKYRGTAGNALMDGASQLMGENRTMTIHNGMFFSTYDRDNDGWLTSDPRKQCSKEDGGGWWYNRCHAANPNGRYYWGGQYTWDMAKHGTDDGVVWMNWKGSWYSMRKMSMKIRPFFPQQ
T1 sequence 3: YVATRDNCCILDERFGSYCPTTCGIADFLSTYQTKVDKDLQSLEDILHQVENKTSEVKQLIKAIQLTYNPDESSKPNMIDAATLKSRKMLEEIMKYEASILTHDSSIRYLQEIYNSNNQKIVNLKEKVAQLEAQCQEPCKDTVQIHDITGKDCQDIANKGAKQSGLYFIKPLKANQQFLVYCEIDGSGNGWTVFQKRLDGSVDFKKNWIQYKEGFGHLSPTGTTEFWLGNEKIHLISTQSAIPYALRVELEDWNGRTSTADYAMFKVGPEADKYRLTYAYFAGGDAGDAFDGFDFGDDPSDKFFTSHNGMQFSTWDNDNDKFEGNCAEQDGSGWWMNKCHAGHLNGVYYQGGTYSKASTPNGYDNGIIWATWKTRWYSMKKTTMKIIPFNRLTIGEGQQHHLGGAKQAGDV

T2: human aortic elastin (human, UniProt P15502 27-786)
T2 construct: elastin from human aorta; Tissue elastin is a cross-linked material; The vendor named for the ELISA differs from that named for the SPR; source: bought: Elastin Products Company (ELISA); Enzyme Research Laboratories (SPR)
T2 sequence: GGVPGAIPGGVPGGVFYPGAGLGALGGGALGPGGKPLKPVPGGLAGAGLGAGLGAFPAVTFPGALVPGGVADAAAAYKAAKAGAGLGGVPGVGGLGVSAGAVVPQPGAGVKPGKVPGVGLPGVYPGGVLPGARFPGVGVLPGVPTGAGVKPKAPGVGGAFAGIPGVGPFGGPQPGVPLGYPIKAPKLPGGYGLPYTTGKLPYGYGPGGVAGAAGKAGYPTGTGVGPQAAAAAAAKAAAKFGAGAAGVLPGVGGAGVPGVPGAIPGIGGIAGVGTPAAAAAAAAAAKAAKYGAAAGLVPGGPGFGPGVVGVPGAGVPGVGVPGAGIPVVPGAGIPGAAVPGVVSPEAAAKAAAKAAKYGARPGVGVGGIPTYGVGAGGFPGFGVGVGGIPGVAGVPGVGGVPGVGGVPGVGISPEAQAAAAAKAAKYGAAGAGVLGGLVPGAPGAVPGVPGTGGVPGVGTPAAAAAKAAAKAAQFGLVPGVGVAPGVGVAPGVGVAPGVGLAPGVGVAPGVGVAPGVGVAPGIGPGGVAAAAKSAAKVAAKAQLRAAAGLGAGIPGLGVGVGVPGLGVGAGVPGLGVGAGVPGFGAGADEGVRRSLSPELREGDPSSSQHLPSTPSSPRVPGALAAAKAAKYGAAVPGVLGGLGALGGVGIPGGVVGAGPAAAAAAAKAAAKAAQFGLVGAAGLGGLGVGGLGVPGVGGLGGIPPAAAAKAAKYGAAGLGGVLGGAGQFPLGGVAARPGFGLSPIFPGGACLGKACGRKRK


How the values were obtained:
[1] = target: human fibronectin (human); experiment: SPR; BIAcore X100; fibrinogen, elastin or fibronectin amine-coupled to CM5 chips; rN23 type I passed over at 0.15 μM to 10 μM in PBS; blank flow cell subtracted; equilibrium dissociation constants
[2] = target: human fibronectin (human); experiment: ELISA; solid-phase binding: elastin (50 μg/ml), fibrinogen (10 μg/ml) or fibronectin (10 μg/ml) coated on microtitre wells; purified rFnBPB N23 in PBS added, 37°C for 2 hr; bound protein detected with anti-hexahistidine monoclonal antibody 7E8
human fibrinogen (human) = human fibrinogen (human) (UniProt P02671); experiment: as above
[3] = target: human aortic elastin (human) (UniProt P15502); experiment: as above
human fibrinogen [4] = target: T1, human fibrinogen; experiment: SPR; BIAcore X100; fibrinogen, elastin or fibronectin amine-coupled to CM5 chips; rN23 type I passed over at 0.15 μM to 10 μM in PBS; blank flow cell subtracted; equilibrium dissociation constants; conditions: both partners purified
human aortic elastin [5] = target: T2, human aortic elastin; experiment: as above; conditions: both partners purified
human fibrinogen [6] = target: T1, human fibrinogen; experiment: ELISA; solid-phase binding: elastin (50 μg/ml), fibrinogen (10 μg/ml) or fibronectin (10 μg/ml) coated on microtitre wells; purified rFnBPB N23 in PBS added, 37°C for 2 hr; bound protein detected with anti-hexahistidine monoclonal antibody 7E8; conditions: both partners purified
human aortic elastin [7] = target: T2, human aortic elastin; experiment: as above; conditions: both partners purified

| Molecule | Kd [1] [nM] | EC50 [2] [nM] | EC50 (human fibrinogen (human)) [nM] | EC50 [3] [nM] | Kd (human fibrinogen [4]) [nM] | Kd (human aortic elastin [5]) [µM] | EC50 (human fibrinogen [6]) [nM] | EC50 (human aortic elastin [7]) [nM] |
| --- | --- | --- | --- | --- | --- | --- | --- | --- |
| recombinant FnBPB N23 isotype I (residues 162-480) from S. aureus strain 8325-4 (from UniProt A0A0H2XKG3 162-480) (domain or fragment) | 2500 | 1500 | – | – | – | – | – | – |
| recombinant FnBPB N23 isotype II from S. aureus strain N315 (domain or fragment) | – | 1500 | 500 | 900 | – | – | – | – |
| recombinant FnBPB N23 isotype III from S. aureus strain MSSA476 (domain or fragment) | – | 1500 | 500 | 900 | – | – | – | – |
| recombinant FnBPB N23 isotype IV from S. aureus strain P1 (domain or fragment) | – | 1500 | 500 | 900 | – | – | – | – |
| recombinant FnBPB N23 isotype V from S. aureus strain 2 (domain or fragment) | – | 1500 | 500 | 900 | – | – | – | – |
| recombinant FnBPB N23 isotype VI from S. aureus strain 3077 (domain or fragment) | – | 1500 | 500 | 900 | – | – | – | – |
| recombinant FnBPB N23 isotype VII from S. aureus strain 233 (domain or fragment) | – | 1500 | 500 | 900 | – | – | – | – |
| recombinant FnBPB N23 isotype I (residues 162-480) from S. aureus strain 8325-4 (domain or fragment, cloned BamHI/SmaI into pQE30 with a 3' stop codon; also called rN23 isotype I; rN23 type I; source: E. coli TOPP 3, pQE30, purified (Ni2+ chelate chromatography); not shown: His6, N-terminal, kept) TGTDVTNKVEVEEGSEIVGHKQDTNVVNPHNAERVTLKYKWKFGEGIKAGDYFDFTLSDNVETHGISTLRKVPEIKSTDGQVMATGEIIGERKVRYTFKEYVQEKKDLTAELSLNLFIDPTTVTQKGNQNVEVKLGETTVSKIFNIQYLGGVRDNWGVTANGRIDTLNKVDGKFSHFAYMKPNNQSLSSVTVTGQVTKGNKPGVNNPTVKVYKHIGSDDLAESVYAKLDDVSKFEDVTDNMSLDFDTNGGYSLNFNNLDQSKNYVIKYEGYYDSNASNLEFQTHLFGYYNYYYTSNLTWKNGVAFYSNNAQGDGKDKLK | – | – | – | – | 2000 | 3.2 | ~500 | ~900 |
